Residue numbers refer to the chain shown, from its start.
B1: Chimeric antibody c63A10A7 (antibody, human IgG1, V domains shown)
VH: QVQLQQSGAELARPGASVKMSCKASGYTFISFTMHWVKQRPGQGLEWIGYINPNSGYTKYNQKFKDKATLTAGQSSSTAYMQLSSLTSEDSAVYYCTRGGGRGFAYWGQGTLVTVSA
VL: DILMTQSPSSMSVSLGDTVTITCHASQDINSNIGWLQQKPGKSFKALIYHGTNLEDGVPSRFSGSGSGADYSLTISSLESEDFADYYCVQYAQFPFTFGSGTKLEIK
notes: also called chimeric antibody 63A10
B2: Humanized antibody h63A10A7-39 (antibody, human IgG1, V domains shown)
VH: QVQLVQSGAEVKKPGASVKVSCKASGYTFISFTMHWVKQRPGQGLEWIGYINPNSGYTKYNQKFKDRVTLTRDTSTSTVYMELSSLRSEDTAVYYCTRGGGRGFAYWGQGTLVTVSS
VL: B1 VL with L3Q, M11L, V13A, L15V, T18R, S72T, E79Q, S80P, D85T, S100Q
notes: Human IgG1 constant region, human kappa constant region
B3: Humanized antibody h63A10A7-20 (antibody, human IgG1, V domains shown)
VH: B2 VH with K38R, R40A, R67K, V68A
VL: B1 VL with M11L, V13A, L15V, T18R, S72T, E79Q, S80P, D85T, S100Q
notes: as for B2
B4: Humanized antibody h63A10A7-23 (antibody, human IgG1, V domains shown)
VH: B2 VH with R67K, V68A
VL: DILMTQSPSSLSASVGDRVTITCHASQDINSNIGWLQQKPGKAPKALIYHGTNLEDGVPSRFSGSGSGADYTLTISSLQPEDFATYYCVQYAQFPFTFGQGTKLEIK
notes: as for B2
B5: Humanized antibody h63A10A7-22 (antibody, human IgG1, V domains shown)
VH: B2 VH with R67K, V68A
VL: B4 VL with L3Q, A43S, P44F
notes: as for B2
B6: Humanized antibody h63A10A7-17 (antibody, human IgG1, V domains shown)
VH: B2 VH with R67K, V68A
VL: B4 VL with A43S, P44F
notes: as for B2
B7: Humanized antibody h63A10A7-37 (antibody, human IgG1, V domains shown)
VH: B2 VH with I48M, R67K, V68A, L70M
VL: B4 VL with L3Q, A43S, P44F
notes: as for B2
B8: Humanized antibody h63A10A7-21 (antibody, human IgG1, V domains shown)
VH: B2 VH
VL: B4 VL with A43S, P44F
notes: as for B2
B9: Humanized antibody h63A10A7-18 (antibody, human IgG1, V domains shown)
VH: B2 VH with R67K, V68A, R72A, T74Q, V79A
VL: B4 VL with A43S, P44F
notes: as for B2
B10: Humanized antibody h63A10A7-26 (antibody, human IgG1, V domains shown)
VH: B2 VH with R67K, V68A
VL: B4 VL with L36Y, A43S, P44F, Y71F
notes: as for B2
B11: Humanized antibody h63A10A7-24 (antibody, human IgG1, V domains shown)
VH: B2 VH with R67K, V68A
VL: B4 VL with A43S, P44F, A69T
notes: as for B2
B12: Humanized antibody h63A10A7-19 (antibody, human IgG1, V domains shown)
VH: B2 VH with I48M, R67K, V68A, L70M
VL: B4 VL with A43S, P44F
notes: as for B2
B13: Humanized antibody h63A10A7-38 (antibody, human IgG1, V domains shown)
VH: B2 VH with K38R, R40A, R67K, V68A
VL: B4 VL with L3Q, A43S, P44F
notes: as for B2
B14: Humanized antibody h63A10A7-25 (antibody, human IgG1, V domains shown)
VH: B2 VH with R67K, V68A
VL: B4 VL with L36Y, A43S, P44F
notes: as for B2
B15: Murine anti-63A10 (antibody, V domains shown)
VH: B1 VH
VL: B1 VL
notes: murine hybridoma antibody; also called 63A10A7
B16: Humanized antibody h75G7C6-8 (antibody, human IgG1, V domains shown)
VH: QVQLVQSGAEVKKPGASVKVSCKASGYTFTDYNMDWVRQAPGQGLEWMGDINPNNADTIYNQKFKGRVTMTRDTSTSTVYMELSSLRSEDTAVYYCARGDYDGYYPVYYAMDYWGQGTTVTVSS
VL: ENVLTQSPATLSLSPGERATLSCRASSSVSSSYLHWYQQKPGQSPRLLIFSTSNLAAGVPARFSGSGSGTDYTLTISSLEPEDFAVYYCQQYSGYPLTFGGGTKVEIK

These binders were tested against T1, wild-type EGFR protein on the surfaces of A431 tumor cells and normal human primary hepatocytes (human, UniProt P00533 25-1210) (assay: FACS, normal human primary hepatocytes).
T1 construct: whole, on cells; Same protein on two cell types; also called human epidermal growth factor receptor; her-1
Description: (§1) The preparation of U87MG-EGFRvIII required for FACS detection is as described in the preparation of the immunogen B in example 1. Normal human primary hepatocytes are purchased from BioreclamationIVT, and A431 tumor cells are purchased from ATCC. The recovered hepatocytes are directly used for FACS detection, and the recovered U87MG-EGFRvIII and A431 cells are subjected to an expanded culture to 90% confluence in a T-75 cell culture flask; the medium is sucked out, and the cells are washed twice with a HBSS buffer (Hanks Balanced Salt Solution) (purchased from Invitrogen), and then treated with an enzyme-free cell dissociation solution (Versene solution: purchased from Life Technology) and collected. The cells are washed twice with the HBSS buffer and are counted, and then the cells are diluted with the HBSS buffer to 2×10⁶ cells/ml, added with 1% goat serum blocking solution, with the percentage being the mass percentage, and incubated on ice for 30 minutes, and then centrifugally washed twice with the HBSS buffer. The collected cells are resuspended to 2×10⁶ cells/mL with an FACS buffer (HBSS+2% FBS, with the percentage being the volume percentage), added to a 96-well FACS reaction plate at 100 μL/well, then added with 100 μL/well of the purified EGFRvIII antibody (samples to be tested) obtained in example 12, and incubated on ice for 2 hours. The plate is centrifugally washed twice with the FACS buffer, added with 100 μL/well of a 1:1000 diluted fluorescence (Alexa 488) labeled secondary antibody (purchased from Invitrogen), and incubated on ice for 1 hour. The plate is centrifugally washed 3 times with the FACS buffer, added with 100 μL/well of a fixing solution [4% (v/v) paraformaldehyde] to resuspend the cells, and centrifugally washed twice with the FACS buffer after 10 minutes. The cells are resuspended in 100 μL of the FACS buffer, and the results are detected and analyzed by FACS (FACS Calibur, purchased from BD). Data analysis is performed by using the software (CellQuest) to obtain the mean fluorescence intensity (MFI) of the cells. Data is further analyzed by using the software (GraphPad Prism5) to perform data fitting and calculate EC50.

Point of comparison: B6, “mean fluorescence intensity (MFI)” value 677 MFI. Against it:
- B1 — lower, 299 MFI
- B2 — lower, 261 MFI
- B3 — lower, 486 MFI
- B4 — lower, 661 MFI
- B5 — lower, 592 MFI
- B7 — lower, 265 MFI
- B8 — lower, 568 MFI
- B9 — lower, 553 MFI
- B10 — lower, 435 MFI
- B11 — lower, 502 MFI
- B12 — lower, 439 MFI
- B13 — lower, 254 MFI
- B14 — lower, 433 MFI

Each binder was assayed against T2, human EGFRvIII-hFc protein (human, UniProt P00533 25-645) (assay: ELISA, coated EGFRvIII-hFc, antibody 0.1 nM).
T2 construct: extracellular domain; made in HEK293 cells, purified on protein A; also called immunogen A; hFc-tagged EGFRvIII protein; not shown: human IgG Fc fragment (hFc) of the pCpC vector
Description: (§2) The purified immunogen A (EGFRvIII-hFc) obtained in example 1 (for the preparation method, see step (I) in example 1) is diluted with PBS to a final concentration of 1.0 μg/mL, and then added to a 96-well ELISA plate at 100 μl/well. The plate is sealed with a plastic film and incubated at 4° C. overnight. The next day, the plate is washed twice with a plate washing solution [PBS+0.01% (v/v) Tween20], and added with a blocking solution [PBS+0.01% (v/v) Tween20+1% (w/w) BSA] for blocking 2 hours at room temperature. The blocking solution is discarded, and the purified EGFRvIII antibody obtained in example 2 is added at 100 μl/well. The plate is incubated for 2 hours at 37° C., and then washed 3 times with the plate washing solution [PBS+0.01% (v/v) Tween20]. The plate is added with an HRP (horseradish peroxidase) labeled secondary antibody (purchased from Sigma), incubated at 37° C. for 2 hours, and then washed 3 times with the plate washing solution [PBS+0.01% (v/v) Tween20]. The plate is added with 100 μl of TMB substrate/well, incubated for 30 minutes at room temperature, and then added with 100 μl of stopping solution (1.0N HCl)/well. A450 nm value is read using an ELISA plate reader (SpectraMax 384plus, purchased from Molecular Device), and the results are shown in FIG. 6 and table 10.

B15 was tested, and the OD450 nm was 0.8.

What follows are binders tested against T1, wild-type EGFR protein on the surfaces … (assay: FACS, MFI on A431 cells over MFI on normal primary hepatocytes).
Description: as §1

Point of comparison: B9, “Selective window (MFIA431/Hepatocytes)” value 16.5 ratio. Against it:
- B1 — lower, 15.8 ratio
- B2 — lower, 7.5 ratio
- B3 — lower, 15.4 ratio
- B4 — lower, 6 ratio
- B5 — lower, 15.8 ratio
- B6 — lower, 15.6 ratio
- B7 — lower, 5 ratio
- B8 — lower, 14 ratio
- B10 — lower, 14.1 ratio
- B11 — higher, 19.6 ratio
- B12 — lower, 8.7 ratio
- B13 — lower, 4.2 ratio
- B14 — higher, 17 ratio

What follows are binders tested against human EGFRvIII-hFc protein (human) (UniProt P00533) (assay: ELISA, EGFRvIII-hFc coated).

B16 showed an EC50 of 2 nM.

Binder B16 has a Maximum OD450 value of 2.72 OD450.

What follows are binders tested against T1, wild-type EGFR protein on the surfaces … (assay: FACS, A431 tumor cells).
Description: as §1

Point of comparison: B3, “mean fluorescence intensity (MFI)” value 7460 MFI. Against it:
- B1 — lower, 4730 MFI
- B2 — lower, 1960 MFI
- B4 — lower, 4000 MFI
- B5 — higher, 9380 MFI
- B6 — higher, 10600 MFI
- B7 — lower, 1320 MFI
- B8 — higher, 7930 MFI
- B9 — higher, 9140 MFI
- B10 — lower, 6130 MFI
- B11 — higher, 9860 MFI
- B12 — lower, 3830 MFI
- B13 — lower, 1060 MFI
- B14 — lower, 7360 MFI

These binders were tested against T2, human EGFRvIII-hFc protein (assay: ELISA, coated EGFRvIII-hFc, antibody 1 nM).
Description: as §2

In the case of B15, the OD450 nm is reported as 3.42.

Each binder was assayed against T2, human EGFRvIII-hFc protein (assay: ELISA, coated EGFRvIII-hFc, antibody 10 nM).
Description: as §2

In the case of B15, the OD450 nm is reported as 3.76.

These binders were tested against T2, human EGFRvIII-hFc protein (assay: ELISA, coated EGFRvIII-hFc, antibody 100 nM).
Description: as §2

Binder B15 has an OD450 nm of 3.71.

Each binder was assayed against T2, human EGFRvIII-hFc protein (assay: ELISA, coated EGFRvIII-hFc, antibody 0.001 nM).
Description: as §2

For B15, the OD450 nm was 0.09.

Each binder was assayed against T2, human EGFRvIII-hFc protein (assay: ELISA, coated EGFRvIII-hFc, antibody 0.0001 nM).
Description: as §2

Work on B15 yielded an OD450 nm of 0.08.

Each binder was assayed against T2, human EGFRvIII-hFc protein (assay: ELISA, coated EGFRvIII-hFc, antibody 0.01 nM).
Description: as §2

B15 was tested, and the OD450 nm was 0.17.

What follows are binders tested against human EGFRvIII protein on the cell surface (human) (UniProt P00533) (assay: FACS on U87MG-EGFRvIII cells).

In the case of B16, the EC50 is reported as 11.6 nM.

With B16 the Maximum mean fluorescence intensity was 17600 MFI.
